Article PMC12807514
Like-named read-outs stand apart in the source and are kept apart here.

Key:
CCR7 (Homo sapiens) [1] = target: CCR7 (Homo sapiens) (UniProt P32248); settings: cited from earlier work
CCR7 (Homo sapiens) [2] = target: CCR7 (Homo sapiens) (UniProt P32248); settings: cited from earlier work; remark: listed apart in the source
[3] = target: C-C Chemokine Receptor 7 (CCR7), endogenous in CEM cells (human (endogenous in CEM)) (UniProt P32248)

Chain of CCL19 (Q99731 22-98): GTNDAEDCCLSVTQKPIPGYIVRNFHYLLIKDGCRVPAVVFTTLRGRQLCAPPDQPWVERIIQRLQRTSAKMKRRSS

For CCL19 (from UniProt Q99731), the Kd (CCR7 (Homo sapiens) [1]) is given as 0.1 nM.

For CCL21 (from UniProt O00585), the Kd (CCR7 (Homo sapiens) [2]) is listed as 0.1 nM.

In the case of “human C-C Chemokine Ligand 19 (hCCL19) (from UniProt Q99731 22-98)”, the CCR7 internalization (CCR7 left on the surface, flow cytometry) in CEM T cells with 200 nM CCL19, measured at 2 min intervals over 10 min [3] is reported as 80%.
